Assay results: the supplement of paper PMC10724198
± gives the standard deviation of the averaged measurements.

Test system: Saccharomyces cerevisiae
Experiment: protein stability index of tFT-peptide fusion (C-terminal peptide) (PSI (0-1 scale)); higher = more stable (slower turnover)
Details: temperature: 30 C
Procedure: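 MPS profiling in S. cerevisiae of the yeast C-terminome library: the last 12 aa of each annotated ORF are fused to the C-terminus of a sfGFP-mCherry timer, after a GGGS linker. Cells are FACS-sorted into 8 mCherry/sfGFP bins and deep-sequenced. PSI runs from 0 (unstable) to 1 (stable); wild type and das1Δ backgrounds, two technical replicates each.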

[1] = genetic background: das1 deletion

Row | Sequence | protein stability index [1] | protein stability index (genetic background: wild type)
1 | EYIVNVNEYGHD [YOL153C C-terminal 12 aa] | 0.6799 ± 0.0043 | 0.678 ± 0.0079
2 | EYSKKYLTTFFQ [YEA6 C-terminal 12 aa] | 0.706 ± 0.025 | 0.722 ± 0.03
3 | FAAVSFVLGTGI [NCW1 C-terminal 12 aa] | 0.714 ± 0.008 | 0.709 ± 0.017
4 | FAEYNRLSAIPV [LAM1 C-terminal 12 aa] | 0.447 ± 0.015 | 0.478 ± 0.02
5 | FAGENFHHGDKL [ENO1 C-terminal 12 aa] | 0.707 ± 0.016 | 0.706 ± 0.0078
6 | FCHGAEDAWNIL [EMG1 C-terminal 12 aa] | 0.7275 ± 0.0017 | 0.712 ± 0.012
7 | FCIFNNVVFPML [RRT1 C-terminal 12 aa] | 0.717 ± 0.011 | 0.7002 ± 0.0035
8 | FCMGVAAFVTTA [UTP21 C-terminal 12 aa] | 0.493 ± 0.013 | 0.497 ± 0.0075
9 | FDDDLTAQLYYP [TDA8 C-terminal 12 aa] | 0.7291 ± 0.0033 | 0.744 ± 0.043
10 | FDTSAQSDRKHS [DCV1 C-terminal 12 aa] | 0.719 ± 0.011 | 0.692 ± 0.018
11 | FEDCCRWNEKQG [HIS6 C-terminal 12 aa] | 0.668 ± 0.022 | 0.694 ± 0.016
12 | FENGGKLKEVDK [MDM35 C-terminal 12 aa] | 0.686 ± 0.01 | 0.7211 ± 0.0027
13 | FFFPLFLFLYHL [YHR180W-A C-terminal 12 aa] | 0.436 ± 0.0054 | 0.306 ± 0.0032
14 | FFMIMVMVINFI [FIG2 C-terminal 12 aa] | 0.195 ± 0.03 | 0.199 ± 0.0042
15 | FFTKLFKKKSSR [MSC3 C-terminal 12 aa] | 0.705 ± 0.02 | 0.6832 ± 0.0021
16 | FFVFLFWWIFLK [SEC22 C-terminal 12 aa] | 0.155 ± 0.019 | 0.131 ± 0.015
17 | FGQDGCLYIYNQ [YHR045W C-terminal 12 aa] | 0.713 ± 0.015 | 0.698 ± 0.021
18 | FHTLENHLKGNS [ADR1 C-terminal 12 aa] | 0.697 ± 0.02 | 0.731 ± 0.064
19 | FIAQAEAEAETD [GRS1 C-terminal 12 aa] | 0.688 ± 0.014 | 0.669 ± 0.017
20 | FIRKIYSAIKVE [TMN2 C-terminal 12 aa] | 0.385 ± 0.012 | 0.268 ± 0.016
21 | FKIFAKLFCTRK [HLR1 C-terminal 12 aa] | 0.71093 ± 0.00038 | 0.6936 ± 0.0041

Row | Sequence | protein stability index [1] | protein stability index (genetic background: wild type)
22 | FKKSVDQMNAST [PSY2 C-terminal 12 aa] | 0.692 ± 0.026 | 0.691 ± 0.017
23 | FLSNEPTFLGCV [YPL135C-A C-terminal 12 aa] | 0.72 ± 0.018 | 0.722 ± 0.033
24 | FLVNTTNKKESD [YIL092W C-terminal 12 aa] | 0.6861 ± 0.004 | 0.693 ± 0.024
25 | FMSNTLFNSSLV [YPR003C C-terminal 12 aa] | 0.668 ± 0.012 | 0.693 ± 0.037
26 | FQRRSISGLGDL [INP1 C-terminal 12 aa] | 0.711 ± 0.0092 | 0.676 ± 0.031
27 | FQTITGEEKEKK [ECM16 C-terminal 12 aa] | 0.708 ± 0.027 | 0.728 ± 0.023
28 | FRSQRLHMDSKP [BUD27 C-terminal 12 aa] | 0.727 ± 0.018 | 0.6682 ± 0.0053
29 | FSALMGESDDEE [TIF4631 C-terminal 12 aa] | 0.659 ± 0.019 | 0.678 ± 0.047
30 | FSTWDIADKQEA [PMT2 C-terminal 12 aa] | 0.717 ± 0.016 | 0.732 ± 0.023
31 | FSVEQREKPSNN [GRX6 C-terminal 12 aa] | 0.69394 ± 0.0003 | 0.69949 ± 0.00033
32 | FTPSNQSHGNFY [TEC1 C-terminal 12 aa] | 0.718 ± 0.015 | 0.662 ± 0.007
33 | FVYKGVRKPKRN [SEN15 C-terminal 12 aa] | 0.752 ± 0.033 | 0.778 ± 0.1
34 | FYHVFDEPRYYL [CWH43 C-terminal 12 aa] | 0.7524 ± 0.0054 | 0.7087 ± 0.0018
35 | GAGALAAAAMLL [CWP2 C-terminal 12 aa] | 0.711 ± 0.032 | 0.665 ± 0.027
36 | GASAEDNTHPDE [NAB6 C-terminal 12 aa] | 0.694 ± 0.011 | 0.681 ± 0.046
37 | GDENFVILEFEC [OAZ1 C-terminal 12 aa] | 0.7 ± 0.019 | 0.732 ± 0.036
38 | GDIIKLRESVNA [YJL215C C-terminal 12 aa] | 0.6729 ± 0.0061 | 0.73 ± 0.05
39 | GDLVNAIMSLSK [EGD2 C-terminal 12 aa] | 0.696 ± 0.013 | 0.696 ± 0.025
40 | GEASTGNRLSFK [BNI1 C-terminal 12 aa] | 0.719 ± 0.013 | 0.72 ± 0.022
41 | GFLGIRWGPRKD [TIM21 C-terminal 12 aa] | 0.7247 ± 0.00099 | 0.6861 ± 0.006
42 | GFQATVGKRRRM [SUI3 C-terminal 12 aa] | 0.699 ± 0.019 | 0.703 ± 0.0081

Row | Sequence | protein stability index [1] | protein stability index (genetic background: wild type)
43 | GGIRKISGSIKK [CDC14 C-terminal 12 aa] | 0.71 ± 0.01 | 0.667 ± 0.037
44 | GGSRGGFRGGRR [GAR1 C-terminal 12 aa] | 0.685 ± 0.041 | 0.707 ± 0.041
45 | GHLSSSRRRLRT [SUV3 C-terminal 12 aa] | 0.7217 ± 0.0043 | 0.7 ± 0.034
46 | GIDVHYVFRTYH [CIN10 C-terminal 12 aa] | 0.704 ± 0.012 | 0.6311 ± 0.0031
47 | GKTTYSEVWAGY [VVS1 C-terminal 12 aa] | 0.746 ± 0.04 | 0.741 ± 0.013
48 | GLFPSNYVSLGN [ABP1 C-terminal 12 aa] | 0.689 ± 0.0081 | 0.721 ± 0.01
49 | GLLLPLCHRKRS [YOR012W C-terminal 12 aa] | 0.706 ± 0.015 | 0.411 ± 0.039
50 | GLRVANPDSDPE [YDR239C C-terminal 12 aa] | 0.7 ± 0.0077 | 0.721 ± 0.081
51 | GLSLSFSKKLDL [DSN1 C-terminal 12 aa] | 0.685 ± 0.023 | 0.671 ± 0.026
52 | GSTSCPLLRLSR [YHR073C-B C-terminal 12 aa] | 0.707 ± 0.021 | 0.685 ± 0.013
53 | GYAKTWSIASAN [CTT1 C-terminal 12 aa] | 0.714 ± 0.011 | 0.674 ± 0.028
54 | GYCKVHPVSDSK [ASI1 C-terminal 12 aa] | 0.706 ± 0.0072 | 0.656 ± 0.036
55 | HAGTRPVLLLQK [YKL053W C-terminal 12 aa] | 0.694 ± 0.016 | 0.674 ± 0.04
56 | HCTVVLPSILKR [YHR217C C-terminal 12 aa] | 0.714 ± 0.024 | 0.705 ± 0.0033
57 | HDHHNDVPEAPV [RAD1 C-terminal 12 aa] | 0.6941 ± 0.0012 | 0.692 ± 0.022
58 | HEEVKHTADTVD [CDC37 C-terminal 12 aa] | 0.71118 ± 0.00024 | 0.67 ± 0.018
59 | HEWKTSINAIST [SWT1 C-terminal 12 aa] | 0.6881 ± 0.0024 | 0.727 ± 0.079
60 | HFKTLVEAFTRN [VPS52 C-terminal 12 aa] | 0.709 ± 0.0082 | 0.714 ± 0.047
61 | HFQYKGKPSRRF [BUB1 C-terminal 12 aa] | 0.693 ± 0.012 | 0.685 ± 0.035
62 | HISLKCIVYKEY [YER135C C-terminal 12 aa] | 0.638 ± 0.0081 | 0.665 ± 0.016
63 | HKGAVCVALNDV [LST8 C-terminal 12 aa] | 0.6883 ± 0.0052 | 0.696 ± 0.051

Row | Sequence | protein stability index [1] | protein stability index (genetic background: wild type)
64 | HKGNGTDKVFVF [AIM33 C-terminal 12 aa] | 0.7139 ± 0.001 | 0.693 ± 0.017
65 | HKNHSVPRLIQV [YCL068C C-terminal 12 aa] | 0.6194 ± 0.0049 | 0.654 ± 0.048
66 | HKQCDSLLDRLK [PTA1 C-terminal 12 aa] | 0.698 ± 0.024 | 0.7053 ± 0.0067
67 | HLEKKEPKSRKK [YDL129W C-terminal 12 aa] | 0.724 ± 0.013 | 0.689 ± 0.03
68 | HLTKLCIFPGLP [YLR282C C-terminal 12 aa] | 0.68857 ± 5.1e-05 | 0.70209 ± 0.00069
69 | HLYDHILEKMVK [CNM67 C-terminal 12 aa] | 0.694 ± 0.032 | 0.7 ± 0.018
70 | HLYFQNPPPAMC [HOT13 C-terminal 12 aa] | 0.72 ± 0.021 | 0.728 ± 0.031
71 | HNLHSYEKRLHN [IMD2 C-terminal 12 aa] | 0.7234 ± 0.0046 | 0.742 ± 0.066
72 | HQFCEQKYVETI [RRT16 C-terminal 12 aa] | 0.7109 ± 0.0024 | 0.664 ± 0.0071
73 | HSRASVQSHPQH [DAL80 C-terminal 12 aa] | 0.7271 ± 0.0023 | 0.699 ± 0.03
74 | HSSYDRPMIIKN [UBP15 C-terminal 12 aa] | 0.685 ± 0.056 | 0.662 ± 0.025
75 | IADHLVGRKRVD [PFK2 C-terminal 12 aa] | 0.701 ± 0.014 | 0.712 ± 0.059
76 | IAEENSSTESLF [CIS1 C-terminal 12 aa] | 0.709 ± 0.0088 | 0.726 ± 0.065
77 | ICCQVAKSLLKI [YGL074C C-terminal 12 aa] | 0.656 ± 0.016 | 0.688 ± 0.027
78 | IDDKSDQEESLQ [MAF1 C-terminal 12 aa] | 0.706 ± 0.0079 | 0.664 ± 0.067
79 | IDLIAFLRNGPL [GPR1 C-terminal 12 aa] | 0.737 ± 0.039 | 0.749 ± 0.088
80 | IDLLAENTKTPI [COA1 C-terminal 12 aa] | 0.6964 ± 0.0031 | 0.697 ± 0.018
81 | IEQEAKQRERNQ [COA6 C-terminal 12 aa] | 0.6993 ± 0.0011 | 0.701 ± 0.02
82 | IFCFDNYRSCYC [YKL031W C-terminal 12 aa] | 0.7071 ± 0.0034 | 0.678 ± 0.038
